PMC5405935, “Role of Kif15 and its novel mitotic partner KBP in K-fiber dynamics and chromosome alignment” (PLoS ONE, 2017)

B2: Kif15-M-His (amino acids 1-714, motor domain and part of the stalk) (domain or fragment, human, UniProt Q9NS87 1-714, looked up)
chain: MAPGCKTELRSVTNGQSNQPSNEGDAIKVFVRIRPPAERSGSADGEQNLCLSVLSSTSLRLHSNPEPKTFTFDHVADVDTTQESVFATVAKSIVESCMSGYNGTIFAYGQTGSGKTFTMMGPSESDNFSHNLRGVIPRSFEYLFSLIDREKEKAGAGKSFLCKCSFIEIYNEQIYDLLDSASAGLYLREHIKKGVFVVGAVEQVVTSAAEAYQVLSGGWRNRRVASTSMNRESSRSHAVFTITIESMEKSNEIVNIRTSLLNLVDLAGSERQKDTHAEGMRLKEAGNINRSLSCLGQVITALVDVGNGKQRHVCYRDSKLTFLLRDSLGGNAKTAIIANVHPGSRCFGETLSTLNFAQRAKLIKNKAVVNEDTQGNVSQLQAEVKRLKEQLAELASGQTPPESFLTRDKKKTNYMEYFQEAMLFFKKSEQEKKSLIEKVTQLEDLTLKKEKFIQSNKMIVKFREDQIIRLEKLHKESRGGFLPEEQDRLLSELRNEIQTLREQIEHHPRVAKYAMENHSLREENRRLRLLEPVKRAQEMDAQTIAKLEKAFSEISGMEKSDKNQQGFSPKAQKEPCLFANTEKLKAQLLQIQTELNNSKQEYEEFKELTRKRQLELESELQSLQKANLNLENLLEATKACKRQEVSQLNKIHAETLKIITTPTKAYQLHSRPVPKLSPEMGSFGSLYTQNSSILDNDILNEPVPPEMNEQAFEA
notes: Kif15, human, first 714 amino acids (motor domain and part of the stalk sufficient for dimerization), cloned into pET-21b; also called recombinant Kif15 motor domain; source: E. coli BL21 (DE3), purified (Ni-NTA)

Columns and labels:
[1] = biological target: B2; assay: SEC + other: sucrose gradient centrifugation; 80 μg of each protein alone or both in motor buffer (100mM PIPES, 2mM MgAc2, 1mM EGTA, 1mM DTT), pre-incubated 30 min on ice; Superose 6 column; 6-28% sucrose gradients, 16 h at 4°C; with or without ATP; native molecular weights calculated from Stokes radius and sedimentation coefficient; conditions: both partners purified
[2] = biological target: the molecule itself; assay: as above

B1: KBP-His (full-length His-tagged KBP) (natural protein, human, UniProt Q96EK5 1-621, looked up)
chain: MANVPWAEVCEKFQAALALSRVELHKNPEKEPYKSKYSARALLEEVKALLGPAPEDEDERPEAEDGPGAGDHALGLPAEVVEPEGPVAQRAVRLAVIEFHLGVNHIDTEELSAGEEHLVKCLRLLRRYRLSHDCISLCIQAQNNLGILWSEREEIETAQAYLESSEALYNQYMKEVGSPPLDPTERFLPEEEKLTEQERSKRFEKVYTHNLYYLAQVYQHLEMFEKAAHYCHSTLKRQLEHNAYHPIEWAINAATLSQFYINKLCFMEARHCLSAANVIFGQTGKISATEDTPEAEGEVPELYHQRKGEIARCWIKYCLTLMQNAQLSMQDNIGELDLDKQSELRALRKKELDEEESIRKKAVQFGTGELCDAISAVEEKVSYLRPLDFEEARELFLLGQHYVFEAKEFFQIDGYVTDHIEVVQDHSALFKVLAFFETDMERRCKMHKRRIAMLEPLTVDLNPQYYLLVNRQIQFEIAHAYYDMMDLKVAIADRLRDPDSHIVKKINNLNKSALKYYQLFLDSLRDPNKVFPEHIGEDVLRPAMLAKFRVARLYGKIITADPKKELENLATSLEHYKFIVDYCEKHPEAAQEIEVELELSKEMVSLLPTKMERFRTKMALT
notes: also called recombinant His-tagged KBP; source: E. coli BL21 (DE3), purified (Ni-NTA)
- stoichiometry N [1]: 2 KBP per Kif15-M dimer

Binder: B2
- stoichiometry N [2]: 2
